Measurements reported in patent US20230212285A1.

Assays:
[1] = biological target: human FcγRIIb, His6-tagged (human) (UniProt P31994); assay: SPR, steady state
[2] = biological target: human FcγRI, His6-tagged (human) (UniProt P12314); assay: SPR, 1:1 kinetic
Sequence of human FcγRI, His6-tagged (human) (P12314 16-288 limits assumed): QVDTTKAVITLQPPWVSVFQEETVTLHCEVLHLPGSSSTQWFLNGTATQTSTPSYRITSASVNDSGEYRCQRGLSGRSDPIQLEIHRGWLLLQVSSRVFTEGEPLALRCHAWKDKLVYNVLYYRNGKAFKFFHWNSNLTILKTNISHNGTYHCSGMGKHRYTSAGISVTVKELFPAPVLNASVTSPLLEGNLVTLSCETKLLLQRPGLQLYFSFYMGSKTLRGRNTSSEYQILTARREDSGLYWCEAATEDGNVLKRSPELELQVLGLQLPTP

Sequence of human FcγRIIb, His6-tagged (human) (P31994 43-217 limits assumed): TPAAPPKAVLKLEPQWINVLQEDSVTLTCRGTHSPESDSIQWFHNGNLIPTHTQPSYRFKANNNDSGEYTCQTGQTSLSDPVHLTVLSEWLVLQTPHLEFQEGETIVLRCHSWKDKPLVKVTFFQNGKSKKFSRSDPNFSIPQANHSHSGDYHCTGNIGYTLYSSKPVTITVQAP

Kd [1]: 23.1 µM
Kd [2]: 0.00925 µM
Substance: isotype control human IgG4 (antibody)
